These results are taken from paper PMC5267525, “Sec3 promotes the initial binary t-SNARE complex assembly and membrane fusion” (Nature Communications, 2017).

The labels stand for the following.
B1: His6-Sso2 (cytosolic domain, a.a. 1–270) [yeast] / GST-tagged Sec9 C-terminal SNARE domain (a.a. 414–651) [yeast] (parent)
chain 1: MSNANPYENNNPYAENYEMQEDLNNAPTGHSDGSDDFVAFMNKINSINANLSRYENIINQIDAQHKDLLTQVSEEQEMELRRSLDDYISQATDLQYQLKADIKDAQRDGLHDSNKQAQAENCRQKFLKLIQDYRIIDSNYKEESKEQAKRQYTIIQPEATDEEVEAAINDVNGQQIFSQALLNANRRGEAKTALAEVQARHQELLKLEKTMAELTQLFNDMEELVIEQQENVDVIDKNVEDAQQDVEQGVGHTNKAVKSARKARKNKIRC
chain 2: EEARQQQEEDEAVDEIKQEIKFTKQSSVASTRNTLKMAQDAERAGMNTLGMLGHQSEQLNNVEGNLDLMKVQNKVADEKVAELKKLNRSILAVHVSNPFNSKRRRREREEQLKNRKIEEKLMREQTSQQLSQSTQRIEGAMNANNNISEVRERYQRKNVLEKAKRYQFENDEEDDEMELEIDRNLDQIQQVSNRLKKMALTTGKELDSQQKRLNNIEESTDDLDINLHMNTNRLAGIR

Variants of B1 are the subject of the first experiment. Put plainly: GST pull-down time course (SDS-PAGE, Coomassie blue staining, band quantification). Conditions: with GST-tagged Sec9 C-terminal SNARE domain (a.a. 414–651) [yeast]; time point 5 min; parent: 0; read off a plot.
As for chain 1 D170G V171S N172S Q174G, the response amounted to 34%.

The experiment is the same for the next values; noted with them: with GST-tagged Sec9 C-terminal SNARE domain (a.a. 414–651) [yeast]; time point 10 min; parent: 9; read off a plot.
Consider chain 1 D170G V171S N172S Q174G, for which the response was 67%.

Staying with this experiment, now noted: with GST-tagged Sec9 C-terminal SNARE domain (a.a. 414–651) [yeast]; time point 20 min; parent: 32; read off a plot.
For chain 1 D170G V171S N172S Q174G, the response was found to be 79%.

Still in this experiment, the particulars now being: with GST-tagged Sec9 C-terminal SNARE domain (a.a. 414–651) [yeast]; time point 40 min; parent: 29; read off a plot.
Regarding chain 1 D170G V171S N172S Q174G, the response amounted to 100%.

Still in this experiment, the particulars now being: with GST-tagged Sec9 C-terminal SNARE domain (a.a. 414–651) [yeast]; time point 70 min; parent: 48; read off a plot.
Take chain 1 D170G V171S N172S Q174G: the response was 92%.

The experiment is the same for the next values; noted with them: with GST-tagged Sec9 C-terminal SNARE domain (a.a. 414–651) [yeast]; time point 110 min; parent: 72; read off a plot.
In the case of chain 1 D170G V171S N172S Q174G, the response was determined as 96%.

The same experiment, now with this note: with GST-tagged Sec9 C-terminal SNARE domain (a.a. 414–651) [yeast]; time point 170 min; read off a plot.
Regarding chain 1 D170G V171S N172S Q174G, the response is 96%.

Still in this experiment, the particulars now being: with GST-tagged Sec9 C-terminal SNARE domain (a.a. 414–651) [yeast]; time point 240 min; parent: 100; read off a plot.
Take chain 1 D170G V171S N172S Q174G: the response was determined as 100%.
